Measurements from patent US20220380475A1 (SORRISO PHARMACEUTICALS, published 2022).
Changes are numbered by the printed parent chain. Numbers in names are those of the source.

T1: membrane-bound human IL-6R on TF-1 cells (human, UniProt P08887 20-468)
T1 sequence: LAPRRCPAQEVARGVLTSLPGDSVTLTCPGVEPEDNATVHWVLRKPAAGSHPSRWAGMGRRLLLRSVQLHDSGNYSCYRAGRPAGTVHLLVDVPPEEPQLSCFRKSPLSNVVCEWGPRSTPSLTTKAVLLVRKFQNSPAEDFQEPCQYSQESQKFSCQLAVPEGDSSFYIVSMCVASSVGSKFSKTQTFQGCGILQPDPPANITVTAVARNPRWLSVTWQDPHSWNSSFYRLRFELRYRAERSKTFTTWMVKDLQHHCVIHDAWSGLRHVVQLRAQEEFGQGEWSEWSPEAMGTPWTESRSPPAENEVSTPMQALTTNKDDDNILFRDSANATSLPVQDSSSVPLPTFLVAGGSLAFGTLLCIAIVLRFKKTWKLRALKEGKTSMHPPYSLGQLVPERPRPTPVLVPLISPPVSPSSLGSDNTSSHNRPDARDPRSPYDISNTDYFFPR

T2: recombinant soluble human IL-6R (human, UniProt P08887 20-365)
T2 construct: also called sIL-6R; shIL-6R
T2 sequence: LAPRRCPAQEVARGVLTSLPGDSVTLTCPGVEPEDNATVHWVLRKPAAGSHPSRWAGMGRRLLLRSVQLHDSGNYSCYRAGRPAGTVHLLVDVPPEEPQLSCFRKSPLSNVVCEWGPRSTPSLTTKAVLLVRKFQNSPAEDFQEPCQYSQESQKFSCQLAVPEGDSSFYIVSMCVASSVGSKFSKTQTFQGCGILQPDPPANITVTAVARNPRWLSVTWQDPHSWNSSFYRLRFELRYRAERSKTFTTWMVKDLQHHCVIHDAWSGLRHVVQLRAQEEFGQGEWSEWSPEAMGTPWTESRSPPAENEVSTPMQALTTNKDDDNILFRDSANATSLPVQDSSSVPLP

T3: cynomolgus monkey soluble IL-6R (from cynomolgus monkey serum) (cynomolgus monkey, UniProt P08887 20-365 (human entry))
T3 construct: Natural soluble IL-6R present in diluted normal cynomolgus monkey serum; also called cyno IL6R; cynomolgous sIL-6R
T3 chain: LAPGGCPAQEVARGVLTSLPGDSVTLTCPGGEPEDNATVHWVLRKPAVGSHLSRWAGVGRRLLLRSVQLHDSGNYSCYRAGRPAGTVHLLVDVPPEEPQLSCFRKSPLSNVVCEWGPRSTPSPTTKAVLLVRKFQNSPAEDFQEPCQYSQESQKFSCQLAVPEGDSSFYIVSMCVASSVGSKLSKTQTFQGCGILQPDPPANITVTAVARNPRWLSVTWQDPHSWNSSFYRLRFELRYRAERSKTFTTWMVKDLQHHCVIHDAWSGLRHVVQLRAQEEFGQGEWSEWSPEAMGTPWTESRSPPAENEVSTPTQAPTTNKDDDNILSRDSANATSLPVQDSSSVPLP

B1: 20A11 (prior art comparative example) (VHH)
VHH: EVQLVESGGGLVQPGGSLRLSCAASGSVFKINVMAWYRQAPGKGRELVAGIISGGSTSYADSVKGRFTISRDNAKNTLYLQMNSLRPEDTAVYYCAFITTESDYDLGRRYWGQGTLVTVSS
notes: Prior art anti-IL-6R polypeptide disclosed in WO 2010/115998; also called PMP20A11
B2: 5G9 (VHH)
VHH: EVQLVESGGGLVQAGGSTRLTCKASGSIFNINSINVMAWYRQAPGKQRELVAIIGKGGGTNYADFVKGRFTISRDAAKNTVNLQMNSLKPEDTAVYYCYADYEDRDSPFNASWGQGTQVTVSS
notes: also called VIL-5G9; 'Wild type' 5G9; not shown: C-terminal Flag and 6xHis tags from vector pMEK222
B3: 4D3 (VHH)
VHH: EVQLVESGGGSVQAGESLTLSCVASISTFSQNAMGWFRQAAGKRRESVARISSSGNVGYTDAVKGRFTMSRDNAKKTVYLQMNSLKPEDTAVYYCNAYSMSGELAAPWGQGTQVTVSS
notes: Llama ICVD from library 46-3, produced in E. coli; also called VIL-4D3; not shown: C-terminal Flag and 6xHis tags from vector pMEK222
B4: 3C12 (VHH)
VHH: EVQLVESGGGLAQLGGSLRLSCVASGNIFSSNTAGWFRQAPGKQREWVAGISIGGMPAYADSVKGRFTISRDNAKNTVYLQMNSLKPEDTAVYYCATGGTEYDYWGQGTQVTVSS
notes: Llama ICVD from library 37-3, produced in E. coli; also called VIL-3C12; not shown: C-terminal Flag and 6xHis tags from vector pMEK222
B5: ID-53V (VHH)
VHH: B2 VHH with F109H
notes: Mutant of 5G9; also called 5G9 + F109H; not shown: C-terminal Flag- and His-tags of E. coli constructs
B6: ID-54V (VHH)
VHH: B2 VHH with R105H
notes: Mutant of 5G9; also called 5G9 + R105H; not shown: C-terminal Flag- and His-tags of E. coli constructs
B7: ID-122V (VHH)
VHH: B2 VHH with F29S, Q47G, K89R, R105H, F109H
notes: E. coli-produced trans-selective 5G9 derivative; also called 5G9 + F29S, Q47G, K89R, R105H, F109H; not shown: C-terminal FLAG-6xHis
B8: ID-3V (VHH)
VHH: EVQLVESGGGLVQAGGSTRLTCLASGSISSINVIGWYRQAPGKQRELVAMIGRGEGANYGDFAKGRFTISRDNSKNTVYLQMNSLKPEDTAVYYCYADYEDHDSPFNGSWGQGTQVTVSS
notes: Mutant of 7F6; also called 7F6 + R102H; not shown: C-terminal Flag- and His-tags of E. coli constructs
B9: ID-49V (VHH)
VHH: B8 VHH with H102R, F106T
notes: Mutant of 7F6; also called 7F6 + F106T; not shown: C-terminal Flag- and His-tags of E. coli constructs
B10: ID-40V (VHH)
VHH: B8 VHH with F106H
notes: Mutant of 7F6; also called 7F6 + R102H, F106H; not shown: C-terminal Flag- and His-tags of E. coli constructs
B11: ID-6V (VHH)
VHH: B8 VHH with H102R, F106H
notes: Mutant of 7F6; also called 7F6 + F106H; not shown: C-terminal Flag- and His-tags of E. coli constructs
B12: ID-47V (VHH)
VHH: B8 VHH with H102R, F106I
notes: Mutant of 7F6; also called 7F6 + F106I; not shown: C-terminal Flag- and His-tags of E. coli constructs
B13: ID-50V (VHH)
VHH: B8 VHH with H102R, F106V
notes: Mutant of 7F6; also called 7F6 + F106V; not shown: C-terminal Flag- and His-tags of E. coli constructs
B14: ID-57V (VHH)
VHH: B2 VHH with F29I
notes: Mutant of 5G9; also called 5G9 + F29I; not shown: C-terminal Flag- and His-tags of E. coli constructs
B15: ID-58V (VHH)
VHH: B2 VHH with F65V
notes: Mutant of 5G9; also called 5G9 + F65V; not shown: C-terminal Flag- and His-tags of E. coli constructs
B16: ID-59V (VHH)
VHH: B2 VHH with Y62D
notes: Mutant of 5G9; also called 5G9 + Y62D; not shown: C-terminal Flag- and His-tags of E. coli constructs
B17: ID-52V (VHH)
VHH: B2 VHH with R105H, F109H
notes: Mutant of 5G9; also called 5G9 + F109H, R105H; not shown: C-terminal Flag- and His-tags of E. coli constructs
B18: ID-55V (VHH)
VHH: B2 VHH with K23H
notes: Mutant of 5G9; also called 5G9 + K23H; not shown: C-terminal Flag- and His-tags of E. coli constructs
B19: ID-56V (VHH)
VHH: B2 VHH with F29S
notes: Mutant of 5G9; also called 5G9 + F29S; not shown: C-terminal Flag- and His-tags of E. coli constructs

Target: T1, membrane-bound human IL-6R on TF-1 cells
Assay: cell-based or functional assay

Binder	TF-1 cell assay EC50 (5 ng/ml IL-6)
B1	0.56 nM

Target: T2, recombinant soluble human IL-6R
Assay: gp130 ELISA (competition): inhibition of human sIL-6R/IL-6 complex binding to coated gp130; 20 ng/mL IL6R, 100 ng/mL IL6
Experimental: Briefly, Maxisorp 96-well plates were coated overnight with 50 μl/well 0.5 μg/ml gp130 then blocked. ICVDs were serially diluted and mixed 1:1 with 100 ng/ml recombinant human IL-6 then 1:1 with 40 ng/ml recombinant human sIL-6R, and incubated for 1 hour to allow binding before adding to the gp130-coated plates. Bound IL-6R was detected with 50 μl/well 0.250 μg/ml BAF227 and then 50 μl/well 1/1000 diluted Extravidin-HRP and the level of neutralisation by the ICVD of IL-6R binding to IL-6/gp130 was determined.
Dose response curves were obtained (dose response curves of particular ICVDs illustrated in FIG. 1). […] This was confirmed with curve-fitting software (Graphpad Prism), which fitted 4 parameter curves to the data and calculated the IC50s (Table 4.1, below).

Binder	IC50
B2	0.16 nM
B3	0.66 nM
B4	1.89 nM

Target: T1, membrane-bound human IL-6R on TF-1 cells
Assay: cell-based or functional assay
Remark: another data set of the same source

Binder	Potency in the TF-1 assay
B2	0.23 not printed (nM in the filing's other TF-1 tables)
B5	17.5 not printed (nM in the filing's other TF-1 tables)
B6	0.31 not printed (nM in the filing's other TF-1 tables)

Target: T2, recombinant soluble human IL-6R
Assay: standard gp130 ELISA (competition), Experiment 2; 10 ng/mL IL-6R, 50 ng/mL IL-6
Experimental: The inhibitory potency and efficacy (maximal inhibition) of the E. coli-produced 5G9 derivatives were confirmed in vitro in the gp130 ELISA, TF-1 cell and M1 cell functional assays measuring responses mediated via human IL-6R. The gp130 assays follow the standard protocol with a final assay concentration of 10 ng/mL IL-6R and 50 ng/mL IL-6.

Binder	EC50
B1	0.22 nM
B7	0.489 nM

Target: T2, recombinant soluble human IL-6R
Assay: standard gp130 ELISA (competition); column 'Potency'

Binder	IC50
B8	0.16 nM
B9	0.31 nM
B10	0.21 nM
B11	0.22 nM
B12	0.27 nM
B13	0.24 nM

Target: T2, recombinant soluble human IL-6R
Assay: standard gp130 ELISA (competition); 10 ng/mL IL-6R, 50 ng/mL IL-6; column 'Potency'
Experimental: Mutant 5G9 sequences were produced and tested for their potency in the standard gp130 ELISA. The standard gp130 ELISA has a final assay concentration of 10 ng/mL IL-6R and 50 ng/mL IL-6.

Binder	IC50
B2	0.09 nM
B14	0.31 nM
B15	0.36 nM
B5	0.3 nM
B16	0.11 nM
B17	0.24 nM
B6	0.15 nM
B18	0.11 nM
B19	0.07 nM

Target: T3, cynomolgus monkey soluble IL-6R (from …)
Assay: anti-cynomolgus IL-6R gp130 ELISA (competition): 10x diluted cynomolgus serum, 50 ng/mL human IL-6, coated human gp130
Experimental: (§1) The standard anti-cynomolgus monkey IL-6R gp130 ELISA assay detailed under ‘Potency, neutralisation and inhibition’ above was performed to assay the ICVDs in parallel for their ability to neutralise sIL6R in cynomolgous monkey serum and recombinant purified human sIL6R. Briefly, Maxisorp 96-well plates were coated overnight with 50 μl/well 1 μg/ml gp130 then blocked. ICVDs were serially diluted and mixed 1:1 with 200 ng/ml recombinant human IL-6, then 1:1 with either 20 ng/ml recombinant human sIL-6R or a 5-fold dilution of cynomolgus monkey serum and incubated for 1 hour to allow binding before adding to the gp130-coated plates. Bound cynomolgus monkey IL-6R was detected with 50 μl/well either 0.25 μg/ml (for human IL-6R) or 0.5 μg/ml (for monkey serum) BAF227 and then 50 μl/well 1/1000 Extravidin-HRP and the level of neutralisation by the ICVD of IL-6R binding to IL-6/gp130 was determined

Binder	IC50
B1	0.106 nM
B2	0.804 nM
B3	0.372 nM
B4	4.14 nM

Target: T2, recombinant soluble human IL-6R
Assay: gp130 ELISA (competition), parallel human arm: 10 ng/mL human IL-6R, 50 ng/mL human IL-6
Experimental: as §1

Binder	IC50
B1	0.24 nM
B2	0.148 nM
B3	0.691 nM
B4	3.53 nM

Target: T3, cynomolgus monkey soluble IL-6R (from …)
Assay: ratio of gp130 ELISA IC50s on human and cynomolgus sIL-6R
Experimental: as §1

Binder	Ratio Cyno IC50/human IC50 (title: human IC50 divided by cynomolgous IC50)
B1	2.3
B2	0.2
B3	1.9
B4	0.9

Target: T2, recombinant soluble human IL-6R
Assay: cell-based or functional assay

Binder	M1 cellular assay EC50 (20 ng/ml IL-6R, 100 ng/ml IL-6)
B7	3.96 nM

Target: T2, recombinant soluble human IL-6R
Assay: standard gp130 ELISA (competition); reference 5G9

Binder	fold increase of IC50 against 5G9
B14	~3 fold
B15	~3 fold

Target: T1, membrane-bound human IL-6R on TF-1 cells
Assay: cell-based or functional assay
Remark: another data set of the same source

Binder	IC50 of inhibition of IL-6-induced TF-1 cell proliferation
B1	1.1 nM
B2	0.9 nM
B3	26 nM
B4	44.6 nM
